Molecular target: the molecule itself
Experiment: cross-linking; PEG5 cross-linker (0.1 M-1 M), protein at 20 nM and 50 nM, 50 mM PBS, 50 mM NaCl, pH 7.0, 25 °C, 30 min, read by SDS-PAGE

B1: PRC1 dimerization domain (PRC1-DD, aa: 1-65) (domain or fragment, human, UniProt O43663-1 1-65, looked up)
chain: MRRSEVLAEESIVCLQKALNHLREIWELIGIPEDQRLQRTEVVKKHIKELLDMMIAEEESLKERL
notes: Protein Regulator of Cytokinesis 1 (PRC1), human, isoform 1 (NP_003972; full length 620 residues), N-terminal dimerization domain, residues 1-65; Cloned between NdeI and XhoI of pET-21a with a C-terminal His-tag; no cleavage of the tag is described; For NMR the protein was 15N- or 15N/13C-labelled; also called DD WT; PRC-DD; source: E. coli BL21 (DE3) or Rosseta (DE3), purified (His-Trap HP, …)
How did the “stoichiometry N” value turn out when B1 was run?
The value was 2.
